The labels stand for the following.
B1: RHOBTB3 (parent)
chain: GGADIIVIKYNVNDKFSFHEVKDN

94 variants from the supplement of paper PMC10567573 can be followed below.
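Also: lentivirally expressed fusions sorted by FACS into six bins by GFP to DsRed ratio, PSI derived from sequencing read proportions per bin multiplied by bin number.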

This data set covers variants of B1. The data set is described as follows: protein stability index of a GFP-peptide fusion (GPS, HEK-293T) (PSI 1-6); higher = more stable. The note with it: c terminus: a fixed tail appended.
As to GGADIIVIKYNVNDKFSFSEVKDN [H19S], the protein stability index worked out at 2.72.

On to GGADIIVIKYNVNDKFSFAEVKDN [H19A], for which the protein stability index worked out at 2.27.

Consider GGADIIVIKYNVNDKFSFYEVKDN [H19Y], for which the protein stability index came to 3.29.

In the case of GGADIIVIKYNVNDKFSFDEVKDN [H19D], the protein stability index was determined as 1.95. To GGADIIVIKYNVNDKFSFVEVKDN [H19V] belongs 2.72; to GGADIIVIKYNVNDKFSFTEVKDN [H19T], 2.52. To GGADIIVIKYNVNDKFSFGEVKDN [H19G] belongs 2.55.

Consider GGADIIVIKYNVNDKFSFMEVKDN [H19M], for which the protein stability index came out at 3.71. The same measure for GGADIIVIAYNVNDKFSFHEVKDN [K9A]: 1.67; for GGADIIVICYNVNDKFSFHEVKDN [K9C]: 2.65. To GGADIIVIPYNVNDKFSFHEVKDN [K9P] belongs 2.07; to GGADIIVIYYNVNDKFSFHEVKDN [K9Y], 2.89. To GGADIIVIMYNVNDKFSFHEVKDN [K9M] belongs 3.15. For GGADIIVILYNVNDKFSFHEVKDN [K9L], the protein stability index was 2.84.

For the variant GGADIIVIWYNVNDKFSFHEVKDN [K9W], the protein stability index stood at 3.44.

For the variant GGADIIVIIYNVNDKFSFHEVKDN [K9I], the protein stability index was 4.01. The same measure for GGADIIVIGYNVNDKFSFHEVKDN [K9G]: 3.78; for GGADIFVIKYNVNDKFSFHEVKDN [I6F]: 1.5.

For GGADILVIKYNVNDKFSFHEVKDN [I6L], the protein stability index amounted to 3.33. The same measure for GGADIKVIKYNVNDKFSFHEVKDN [I6K]: 3; for GGADIYVIKYNVNDKFSFHEVKDN [I6Y]: 2.23; for GGADIAVIKYNVNDKFSFHEVKDN [I6A]: 3.21. To GGADIEVIKYNVNDKFSFHEVKDN [I6E] belongs 3.74.

Consider GGADICVIKYNVNDKFSFHEVKDN [I6C], for which the protein stability index is 1.67. The same measure for GGADIMVIKYNVNDKFSFHEVKDN [I6M]: 1.92; for GGADIPVIKYNVNDKFSFHEVKDN [I6P]: 4.12; for GGADINVIKYNVNDKFSFHEVKDN [I6N]: 3.83. To GGADIIVIKYNVNDKFSFHEVKDK [N24K] belongs 2.73; to GGADIIVIKYNVNDKFSFHEVKDL [N24L], 3.07; to GGADIIVIKYNVNDKFSFHEVKDV [N24V], 3.86.

In the case of GGADIIVIKYNVNDKFSFHEVKDF [N24F], the protein stability index is 3.49. To GGADIIVIKYNVNDKFSFHEVKDI [N24I] belongs 2.21; to GGADIIVIKYNVNDKFSFHEVKDE [N24E], 1.44; to GGADIIVIKYNVNDKFSFHEVKDS [N24S], 2.71. The same measure for GGADIIVIKYNVNDKFSFHEVKDA [N24A]: 2.09; for GGADIIVIKYNVNDKFSFHEVKDG [N24G]: 3. To GYADIIVIKYNVNDKFSFHEVKDN [G2Y] belongs 2.69; to GKADIIVIKYNVNDKFSFHEVKDN [G2K], 2.86; to GMADIIVIKYNVNDKFSFHEVKDN [G2M], 3.43. With GEADIIVIKYNVNDKFSFHEVKDN [G2E], the protein stability index amounted to 1.98.

As to GCADIIVIKYNVNDKFSFHEVKDN [G2C], the protein stability index is 1.97.

In the case of GDADIIVIKYNVNDKFSFHEVKDN [G2D], the protein stability index worked out at 2.31. The same measure for GFADIIVIKYNVNDKFSFHEVKDN [G2F]: 3.68; for GPADIIVIKYNVNDKFSFHEVKDN [G2P]: 1.52.

GGADIIVIKYNVNDKFSFHEVKQN [D23Q]: the protein stability index amounted to 2.76. The same measure for GGADIIVIKYNVNDKFSFHEVKAN [D23A]: 2.71. The same measure for GGADIIVIKYNVNDKFSFHEVKEN [D23E]: 2.68; for GGADIIVIKYNVNDKFSFHEVKMN [D23M]: 2.02; for GGADIIVIKYNVNDKFSFHEVKPN [D23P]: 3.16.

Consider GGADIIVIKYNVNDKFSFHEVKLN [D23L], for which the protein stability index is 3.42. To GGADIIVIKYNVNDKFSFHEVKTN [D23T] belongs 4.21; to GGADIIVIKYNVNDKFSFHEVKSN [D23S], 2.21; to GGADIIVIKYNVNDKFSFHEVKYN [D23Y], 2.28. To GGADIIVIKYNDNDKFSFHEVKDN [V12D] belongs 1.95. To GGADIIVIKYNYNDKFSFHEVKDN [V12Y] belongs 2.38; to GGADIIVIKYNANDKFSFHEVKDN [V12A], 2.83; to GGADIIVIKYNHNDKFSFHEVKDN [V12H], 1.92. With GGADIIVIKYNWNDKFSFHEVKDN [V12W], the protein stability index was 3.56. To GGADIIVIKYNVNDKFSNHEVKDN [F18N] belongs 1.39; to GGADIIVIKYNVNDKFSPHEVKDN [F18P], 1.95; to GGADIIVIKYNVNDKFSYHEVKDN [F18Y], 2.72.

With GGADIIVIKYNVNDKFSDHEVKDN [F18D], the protein stability index amounted to 2.26. To GGADIIVIKYNVNDKFSTHEVKDN [F18T] belongs 2.63; to GGADIIVIKYNVNDKFSKHEVKDN [F18K], 1.78. As for GGADIIVIKYNVNDKFSCHEVKDN [F18C], the protein stability index amounted to 3.13. To GGADIIVIKYNVNDKFSMHEVKDN [F18M] belongs 1.87; to GGADIIVIKYNVNDKFSFHEVHDN [K22H], 3.97; to GGADIIVIKYNVNDKFSFHEVNDN [K22N], 2.1. As for GGADIIVIKYNVNDKFSFHEVRDN [K22R], the protein stability index is 2.61. The same measure for GGADIIVIKYNVNDKFSFHEVPDN [K22P]: 3.07; for GGADIIVIKYNVNDKFSFHEVTDN [K22T]: 2.58. Turning to GGADIIVIKYNVNDKFSFHEVDDN [K22D], the protein stability index was determined as 2.36. The same measure for GGADIIVIKYNVNDKFSFHEVWDN [K22W]: 2.75; for GGADIIVAKYNVNDKFSFHEVKDN [I8A]: 1.78; for GGADIIVGKYNVNDKFSFHEVKDN [I8G]: 2.92. The same measure for GGADIIVSKYNVNDKFSFHEVKDN [I8S]: 3.71; for GGADIIVLKYNVNDKFSFHEVKDN [I8L]: 1.47; for GGADIIVQKYNVNDKFSFHEVKDN [I8Q]: 3.48. As for GGADIIVPKYNVNDKFSFHEVKDN [I8P], the protein stability index is 1.32. In the case of GGADIIVMKYNVNDKFSFHEVKDN [I8M], the protein stability index turned out to be 1.89. For GGADIIVEKYNVNDKFSFHEVKDN [I8E], the protein stability index amounted to 4.25. The same measure for GGADIIVHKYNVNDKFSFHEVKDN [I8H]: 3.35; for GGADIIVKKYNVNDKFSFHEVKDN [I8K]: 3.96; for GGADIIVNKYNVNDKFSFHEVKDN [I8N]: 4.41.

Take LGADIIVIKYNVNDKFSFHEVKDN [G1L]: the protein stability index stood at 2.44. The same measure for MGADIIVIKYNVNDKFSFHEVKDN [G1M]: 1.97. Turning to TGADIIVIKYNVNDKFSFHEVKDN [G1T], the protein stability index came to 2.99. To WGADIIVIKYNVNDKFSFHEVKDN [G1W] belongs 1.54; to SGADIIVIKYNVNDKFSFHEVKDN [G1S], 3.49. The same measure for IGADIIVIKYNVNDKFSFHEVKDN [G1I]: 2.53; for NGADIIVIKYNVNDKFSFHEVKDN [G1N]: 2.96; for RGADIIVIKYNVNDKFSFHEVKDN [G1R]: 3.04.

As for AGADIIVIKYNVNDKFSFHEVKDN [G1A], the protein stability index was found to be 2.07. The same measure for VGADIIVIKYNVNDKFSFHEVKDN [G1V]: 2.1.
